Kd data for two molecules are collected here from publication PMC8713425 (Journal of medicinal chemistry, 2021).

Positions count from the first letter of the chain named. In names and notes the source's numbering stands.

This assay has as its target LGR4 (leucine-rich repeat containing, G protein-coupled receptor 4) (UniProt Q9BXB1 25-951). Kind of assay: whole-cell binding assay.

B1: R4Fu-WT (wild-type RSPO4 furin domain fused to human IgG1 Fc) (Fc fusion)
chain: VGTGLGGNCTGCIICSEENGCSTCQQRLFLFIRREGIRQYGKCLHDCPPGYFGIRGQEVNRCKKCGATCESCFSQDFCIRCKRQFYLYKGKCLPTCPPSGGGGSGGGGSGGGGS
The Kd is the concentration at which binding is half-saturated. For the molecule B1, the Kd is 3.2 nM.

B2: R4Fu-Q65R (RSPO4 furin domain Q65R fused to human IgG1 Fc) (Fc fusion)
chain: B1 chain with Q39R
The molecule B2 yielded a Kd of 6.2 nM.
